Source: article PMC7373190, “Archaeal Chromatin Proteins Cren7 and Sul7d Compact DNA by Bending and Bridging” (mBio, 2020)

Biological target: the molecule itself
Assay: cross-linking; 10 ug protein in 10 ul, 1 mM DSP, 30 min at 25°C, 20 mM HEPES-KOH pH 7.6, 50 mM KCl, without or with pUC18 DNA (protein/DNA mass ratios 1:1 and 1:5); non-reducing 15% SDS-PAGE, Coomassie

B1: Sis7d (natural protein)
chain: MTTVKFKYKGEEKQVDTSKIKKVWRVGKMISFTYDEGGGKTGRGAVSEKDAPKELLQMLEKQKK
Q: Which “stoichiometry N” value does the source give for B1 here?
A: 2
